From patent US20020192785A1 (ONYX PHARMACEUTICALS, published 2002) come the findings set out here.

The target of one test is T1, EE-K-Ras (UniProt P01116-2 1-188).
T1 construct: Named EE-K-Ras only for the GDP dissociation assay; the result on physical association says 'K-Ras' and its format is not described; not shown: EE (glu-glu) tag
Nature of the test: complex formation assay; format for K-Ras not described.

For a further test, the target named is GST-Rac1 (UniProt P63000 1-192). Nature of the test: pull-down on GSH agarose (nucleotide depleted or GDP state), anti glu-glu immunoblot. Here is the method: (§1) Comparison of p115 stimulated GDP and GTPγ`S dissociation from RhoA. Increasing amounts of glu-glu tagged •N-p115 (0, 0.02, 0.075, 0.02, 0.4, 1.0 μM) were incubated with 0.3 μM RhoA with bound [³H]-GDP or GTP`[³⁵S] for 10 minutes, and the amount of nucleotide remaining bound to RhoA was determined as described in Hart et al. (39). Specificity of •N-p115 stimulated GDP dissociation. Increasing amounts of •N-p115 (0, 0.25, 0.5, 1.0, 2.0 μM) were incubated for 5 minutes with 2.0 μM GST-RhoA, GST-Rac1, GST-Cdc42Hs or EE-K-Ras prebound with [³H]-GDP and analysed as described in A. Western analysis of complex formation. One μg of glu-glu tagged •N-p115 was incubated with 4 μg of the nucleotide depleted or GDP states of baculovirus expressed GST-Rho, GST-Rac or GST-Cdc42Hs coupled to GSH agarose as described in Hart et al. (18). Proteins, which were recovered on the washed GSH beads, were analsed by SDS-PAGE and immunoblotting. The blot was probed with an affinity purified anti glu-glu monoclonal antibody. 100 ngs of glu-glu tagged •N-p115 was used as a positive control. Kinetic analysis of p115-catalyzed GEF activity on RhoA. […] The level of GTP incorporated onto Rho/min/pmol of •N-p115 was measured as GST-RhoA[`³²P]GTP bound to nitrocellulose filters.
In general terms: In western blotting, separated proteins are transferred to a membrane and probed.

The target in the next test is T2, GST-Cdc42Hs (UniProt P60953 1-191).
T2 construct: Baculovirus expressed; not shown: glutathione S-transferase (GST) fusion partner
Described as above. As for the experimental part: as §1

For test [1], the target named is RhoA with bound [3H]-GDP or GTPγ[35S] (UniProt P61586 1-193, limits assumed). Nature of the test: cell-based or functional assay.
RhoA with bound [3H]-GDP or GTPγ[35S], sequence (P61586 whole entry): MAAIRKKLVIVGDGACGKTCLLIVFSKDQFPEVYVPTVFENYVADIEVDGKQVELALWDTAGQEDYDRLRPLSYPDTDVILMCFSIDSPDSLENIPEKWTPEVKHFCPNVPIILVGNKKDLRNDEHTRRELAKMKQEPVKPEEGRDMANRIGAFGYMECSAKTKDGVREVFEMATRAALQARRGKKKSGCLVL

T2 sequence (P60953 whole entry, the tested form may be a part): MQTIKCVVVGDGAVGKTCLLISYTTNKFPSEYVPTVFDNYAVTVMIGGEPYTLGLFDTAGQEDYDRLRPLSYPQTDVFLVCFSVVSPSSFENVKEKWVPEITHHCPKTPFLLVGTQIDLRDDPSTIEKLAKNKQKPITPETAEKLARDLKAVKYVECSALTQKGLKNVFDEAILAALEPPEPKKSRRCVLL

B1: glu-glu tagged •N-p115 (amino acids 249-912 of human p115 Rho-GEF) (other, not shown: small tags and cut ends)
chain: VMGNRRSDDPPKTKKGLSSILDAARWNRGEPQVPDFRHLKAEVDAEKPGATDRKGGVGMPSRDRNIGAPGQDTPGVSLHPLSLDSPDREPGADAPLELGDSSPQGPMSLESLAPPESTDEGAETESPEPGDEGEPGRSGLELEPEEPPGWRELVPPDTLHSLPKSQVKRQEVISELLVTEAAHVRMLRVLHDLFFQPMAECLFFPLEELQNIFPSLDELIEVHSLFLDRLMKRRQESGYLIEEIGDVLLARFDGAEGSWFQKISSRFCSRQSFALEQLKAKQRKDPRFCAFVQEAESRPRCRRLQLKDMIPTEMQRLTKYPLLLQSIGQNTEEPTEREKVELAAECCREILHHVNQAVRDMEDLLRLKDYQRRLDLSHLRQSSDPMLSEFKNLDITKKKLVHEGPLTWRVTKDKAVEVHVLLLDDLLLLLQRQDERLLLKSHSRTLTPTPDGKTMLRPVLRLTSAMTREVATDHKAFYVLFTWDQEAQIYELVAQTVSERKNWCALITETAGSLKVPAPASRPKPRPRPSSTREPLLSSSENGNGGRETSPADARTERILSDLLPFCRPGPEGQLAATALRKVLSLKQLLFPAEEDNGAGPPRDGDGVPGGGPLSPARTQEIQENLLSLEETMKQLEELEEEFCRLRPLLSQLGGNSVPQPGCT
notes: Expressed in the baculovirus/Sf9 system and purified on anti-glu-glu Sepharose; also called N-terminal truncated version of p115
As to B1, the binding result with EE-K-Ras, with GST-Rac1 and in the test with GST-Cdc42Hs was “no binding” in each case. Further, the “stimulation of the intrinsic dissociation of GDP from RhoA” value in test [1] came to 10 fold.
